# Laboratory results taken from the nanobody polyreactivity screen of Harvey et al. (2022).
# Test: yeast display, Sf9 membrane polyspecificity reagent, FACS + sequencing; frameworks hold sequencing errors
# Method in brief: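 A synthetic nanobody library was expressed on Saccharomyces cerevisiae BJ5465 by galactose induction for 36–48 hours. The library was stained for 1 hour at 4 °C with 10% biotinylated, detergent-solubilized Sf9 membrane reagent and enriched with streptavidin microbeads before FACS. Low and high (top ~1%) gates were set on anti-HA fluorescence for expression and streptavidin fluorescence for reagent binding, and each polyreactivity label reflects the gate of origin.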
row,Sequence,polyreactivity (PSR sort gate)
1,QVQLVESGGGLVQAGGRLRLSCAASGRIFDPYAMGWCRQAPGKESELVASISWSGGRTYYADSVKGRFTISRDNAKNTVYLQMNSLKPEDTAVYYCAAREWYRYKVRFDYWGQGTQVTVSS,high polyreactivity
2,QVQLVESGGGLVQAGGRLRLSCAASGRIFFYYAMGWYRQAPGKERELVAAITSGGNTNYADSVKGRFTISRDNAKNTVYLQMNSLKPEDTAVYYCNKDLYADGQYNYDYWGQGTQVTVSS,low polyreactivity
3,QVQLVESGGGLVQAGGRLRLSCAASGRIFGFNAMGWYRQAPGKERELVAAIDGNDASTFYADSGKGRFTISRDNAKNTDYFQMNSLKPEDTAVYYCAAESSYVYLGWREYWGQGTQVTVSS,high polyreactivity
4,QVQLVESGGGLVQAGGRLRLSCAASGRIFGSYAMGWYRQAPGKERELVAAITFSGVNTYYADSVKGRFTISRDNAKNTVYLQMNRLKPEDTAVYYCAVRGPEAEYDYWGQGTQVTVSS,high polyreactivity
5,QVQLVESGGGLVQAGGRLRLSCAASGRIFKPNAMGSYRQAPGKEREFVARITRNTGSTYYADSVKGRFSISRDNEKNTVYLQMNSLKPEDNAVYDCAAGAPSYYYYWGHGTQVTVSS,high polyreactivity
6,QVQLVESGGGLVQAGGRLRLSCAASGRIFPVNAMGWYRQAPGKERELVAGITWSGDGSTYYADSVKGRFTISRDNAKNTVYLQMNSLKPEDTAVYYCAARLNLQGRYDYSGQGTQVTVSS,low polyreactivity
7,QVQLVESGGGLVQAGGRLRLSCAASGRIFTRYAMGWYRQAPGKERELVAAINYRGSSTYYADSVKGRFTISRDNAKNTVYLQMNSLKPEDTAVYYCNTYGQTDTYWRYYYWGQGTQVTVSS,high polyreactivity
8,QVQLVESGGGLVQAGGRLRLSCAASGRIFYFNAMGWYRQAPGKEREFVASINSIGDSTYYADSVKGRFTISRDNAKNTVYLQMNSLKPEDTAVYYCNADHGVINYRLDYWGQGTQVTVSS,low polyreactivity
9,QVQLVESGGGLVQAGGRLRLSCAASGRIFYNYAMGWYRQAPGKERELVAAISGSGGSTYYADSVKGRFTISRDNAKNTVYLQMNCLKPDDTAVYYCSTSGPQYYSRNFDYWGQGTQVTVSS,low polyreactivity
10,QVQLVESGGGLVQAGGRLRLSCAASGRIFYVYAMGGYRQAPGKERELVAAISRGGSTNSADSVKGRFTISRDNAKNTVYLQMNSLKPEDTAVYYCAASSLPHYSYRHSYLYVYWGQCTQVTVSS,low polyreactivity
11,QVQLVESGGGLVQAGGRLRLSCAASGRIYRRNTMGWYRQAPGKERELVAAITSSGGSTYADSVKGRFTISRDNAKNTVYLQMNSLKPEDTAVYYCATYVAYHRGYRTYDHWGQGTQVTVSS,low polyreactivity
12,QVQLVESGGGLVQAGGRLRLSCAASGRTFAYYAMGWYRQAPGKERELVASITTRDGSTYYADSVKGRFTISRDNAKNTVYLQMNSLKPEDTAVYYCAAATEYSSGYEYDYWGQGTQVTVSS,low polyreactivity
13,QVQLVESGGGLVQAGGRLRLSCAASGRTFRRYTMGWDRQAPGKERELVAANTSGGRTNYADSVKGRFTISRDNAKNTVYLQMNSLKPEDTAVYYCNAQNEIWRVTFSPYDRWGYDYWGQGTQVTVSA,low polyreactivity
14,QVQLVESGGGLVQAGGRLRLSCAASGRTFTPNAMGWYRQAPGKERELVAAIDWRGGRTYYADSVKGRFTISRDNAKNTVYLQMNSLKPEDTAVYYCAARVDGYHYKSAGYSYGVYYWGQGTQVTVSS,low polyreactivity
15,QVQLVESGGGLVQAGGRLRLSCAASGRTFYRNAMGWYRQAPGKERELVAGISVRGGRTYYADSVKGRFTISRDNAKNTVYLQMNSLKPEDTAVYYCNKRLSSSLSLKYDYWGQGTQVTVSS,high polyreactivity
16,QVQLVESGGGLVQAGGRLRLSCAASGRTFYSNAMGWYSQAPGKERELVAAITFGGGSTYYADSVKGRFTISRDNAKNTVYLQMNSLKPEDTAVYYCAAEGYKYRFYYWGQGTQVTVSS,low polyreactivity
17,QVQLVESGGGLVQAGGRLRLSCAASGRTFYSYTMGWYRPAPGKERELVAAIRYSGDRTYYADSVKGRFTISRDNAKNTVDLQMNSLKPEDTAVYYCGKAAPYPGSFYYWGQGTQVTVSS,low polyreactivity
18,QVQLVESGGGLVQAGGRLRLSCAASGRTIPYYAMGWSRQSPGKDREFVAAISGGGGSTHYADSVKGRFTISRDNAKNTVYLQMNSLKPEDTAVYYCNADKYSVYGEHPYDYWGQGSQVTVSS,low polyreactivity
19,QVQLVESGGGLVQAGGRLRLSCAASGRTIYGYDKGWYRQAPGKERELVAAINIGGRTNYADSVKGRFTISRDNAKNTVYLQMNSLKPEDTAVYYCADRYTFGPYLARSYGYWGQGTQVTVSS,low polyreactivity
20,QVQLVESGGGLVQAGGRLRLSCAASGRTLVSNAMGWYRQAPGKERELVAAITYSGGSTYYADSVKGRFTISRDNAKNTVYLQMNSLKPEDTAVYYCAKVGRLYRVGGYDYWGQGTQVTVSS,low polyreactivity
21,QVQLVESGGGLVQAGGRLRLSCAASGRTLWIYAMGWYRQAPGKERELVASITTRGGSTYYADSVKGRFTISRDNAKNTVYLQMKSLKPEDTAVYYCAAEGYTYYTYDPHDYWGQGTQVTVSS,high polyreactivity
22,QVQLVESGGGLVQAGGRLRLSCAASGRTMGWYRQAPGKERELVAAISSGGGSTYYADSVKGRFTISRDNAKNTVYLQMNSLKPEDTAVYYCARTTIAQLHSIVAPHDYWGQGTQVTVSS,low polyreactivity
